Columns and labels:
[1] = target: T1, Heterogeneous nuclear ribonucleoprotein U (Homo sapiens, UniProt Q00839 2-825); test: anti-FLAG co-IP LC-MS, exp 3, +Dox
T1 construct: also called HNRNPU; HNRPU

[2] = target: ATP-dependent RNA helicase DDX3X (Homo sapiens, UniProt O00571 2-662); test: anti-FLAG co-IP LC-MS, exp 3, +Dox
[3] = target: T2, DNA-dependent protein kinase catalytic subunit (Homo sapiens, UniProt P78527 1-4128); test: anti-FLAG co-IP LC-MS, exp 3, +Dox
T2 construct: also called PRKDC
T2 sequence (P78527 whole entry): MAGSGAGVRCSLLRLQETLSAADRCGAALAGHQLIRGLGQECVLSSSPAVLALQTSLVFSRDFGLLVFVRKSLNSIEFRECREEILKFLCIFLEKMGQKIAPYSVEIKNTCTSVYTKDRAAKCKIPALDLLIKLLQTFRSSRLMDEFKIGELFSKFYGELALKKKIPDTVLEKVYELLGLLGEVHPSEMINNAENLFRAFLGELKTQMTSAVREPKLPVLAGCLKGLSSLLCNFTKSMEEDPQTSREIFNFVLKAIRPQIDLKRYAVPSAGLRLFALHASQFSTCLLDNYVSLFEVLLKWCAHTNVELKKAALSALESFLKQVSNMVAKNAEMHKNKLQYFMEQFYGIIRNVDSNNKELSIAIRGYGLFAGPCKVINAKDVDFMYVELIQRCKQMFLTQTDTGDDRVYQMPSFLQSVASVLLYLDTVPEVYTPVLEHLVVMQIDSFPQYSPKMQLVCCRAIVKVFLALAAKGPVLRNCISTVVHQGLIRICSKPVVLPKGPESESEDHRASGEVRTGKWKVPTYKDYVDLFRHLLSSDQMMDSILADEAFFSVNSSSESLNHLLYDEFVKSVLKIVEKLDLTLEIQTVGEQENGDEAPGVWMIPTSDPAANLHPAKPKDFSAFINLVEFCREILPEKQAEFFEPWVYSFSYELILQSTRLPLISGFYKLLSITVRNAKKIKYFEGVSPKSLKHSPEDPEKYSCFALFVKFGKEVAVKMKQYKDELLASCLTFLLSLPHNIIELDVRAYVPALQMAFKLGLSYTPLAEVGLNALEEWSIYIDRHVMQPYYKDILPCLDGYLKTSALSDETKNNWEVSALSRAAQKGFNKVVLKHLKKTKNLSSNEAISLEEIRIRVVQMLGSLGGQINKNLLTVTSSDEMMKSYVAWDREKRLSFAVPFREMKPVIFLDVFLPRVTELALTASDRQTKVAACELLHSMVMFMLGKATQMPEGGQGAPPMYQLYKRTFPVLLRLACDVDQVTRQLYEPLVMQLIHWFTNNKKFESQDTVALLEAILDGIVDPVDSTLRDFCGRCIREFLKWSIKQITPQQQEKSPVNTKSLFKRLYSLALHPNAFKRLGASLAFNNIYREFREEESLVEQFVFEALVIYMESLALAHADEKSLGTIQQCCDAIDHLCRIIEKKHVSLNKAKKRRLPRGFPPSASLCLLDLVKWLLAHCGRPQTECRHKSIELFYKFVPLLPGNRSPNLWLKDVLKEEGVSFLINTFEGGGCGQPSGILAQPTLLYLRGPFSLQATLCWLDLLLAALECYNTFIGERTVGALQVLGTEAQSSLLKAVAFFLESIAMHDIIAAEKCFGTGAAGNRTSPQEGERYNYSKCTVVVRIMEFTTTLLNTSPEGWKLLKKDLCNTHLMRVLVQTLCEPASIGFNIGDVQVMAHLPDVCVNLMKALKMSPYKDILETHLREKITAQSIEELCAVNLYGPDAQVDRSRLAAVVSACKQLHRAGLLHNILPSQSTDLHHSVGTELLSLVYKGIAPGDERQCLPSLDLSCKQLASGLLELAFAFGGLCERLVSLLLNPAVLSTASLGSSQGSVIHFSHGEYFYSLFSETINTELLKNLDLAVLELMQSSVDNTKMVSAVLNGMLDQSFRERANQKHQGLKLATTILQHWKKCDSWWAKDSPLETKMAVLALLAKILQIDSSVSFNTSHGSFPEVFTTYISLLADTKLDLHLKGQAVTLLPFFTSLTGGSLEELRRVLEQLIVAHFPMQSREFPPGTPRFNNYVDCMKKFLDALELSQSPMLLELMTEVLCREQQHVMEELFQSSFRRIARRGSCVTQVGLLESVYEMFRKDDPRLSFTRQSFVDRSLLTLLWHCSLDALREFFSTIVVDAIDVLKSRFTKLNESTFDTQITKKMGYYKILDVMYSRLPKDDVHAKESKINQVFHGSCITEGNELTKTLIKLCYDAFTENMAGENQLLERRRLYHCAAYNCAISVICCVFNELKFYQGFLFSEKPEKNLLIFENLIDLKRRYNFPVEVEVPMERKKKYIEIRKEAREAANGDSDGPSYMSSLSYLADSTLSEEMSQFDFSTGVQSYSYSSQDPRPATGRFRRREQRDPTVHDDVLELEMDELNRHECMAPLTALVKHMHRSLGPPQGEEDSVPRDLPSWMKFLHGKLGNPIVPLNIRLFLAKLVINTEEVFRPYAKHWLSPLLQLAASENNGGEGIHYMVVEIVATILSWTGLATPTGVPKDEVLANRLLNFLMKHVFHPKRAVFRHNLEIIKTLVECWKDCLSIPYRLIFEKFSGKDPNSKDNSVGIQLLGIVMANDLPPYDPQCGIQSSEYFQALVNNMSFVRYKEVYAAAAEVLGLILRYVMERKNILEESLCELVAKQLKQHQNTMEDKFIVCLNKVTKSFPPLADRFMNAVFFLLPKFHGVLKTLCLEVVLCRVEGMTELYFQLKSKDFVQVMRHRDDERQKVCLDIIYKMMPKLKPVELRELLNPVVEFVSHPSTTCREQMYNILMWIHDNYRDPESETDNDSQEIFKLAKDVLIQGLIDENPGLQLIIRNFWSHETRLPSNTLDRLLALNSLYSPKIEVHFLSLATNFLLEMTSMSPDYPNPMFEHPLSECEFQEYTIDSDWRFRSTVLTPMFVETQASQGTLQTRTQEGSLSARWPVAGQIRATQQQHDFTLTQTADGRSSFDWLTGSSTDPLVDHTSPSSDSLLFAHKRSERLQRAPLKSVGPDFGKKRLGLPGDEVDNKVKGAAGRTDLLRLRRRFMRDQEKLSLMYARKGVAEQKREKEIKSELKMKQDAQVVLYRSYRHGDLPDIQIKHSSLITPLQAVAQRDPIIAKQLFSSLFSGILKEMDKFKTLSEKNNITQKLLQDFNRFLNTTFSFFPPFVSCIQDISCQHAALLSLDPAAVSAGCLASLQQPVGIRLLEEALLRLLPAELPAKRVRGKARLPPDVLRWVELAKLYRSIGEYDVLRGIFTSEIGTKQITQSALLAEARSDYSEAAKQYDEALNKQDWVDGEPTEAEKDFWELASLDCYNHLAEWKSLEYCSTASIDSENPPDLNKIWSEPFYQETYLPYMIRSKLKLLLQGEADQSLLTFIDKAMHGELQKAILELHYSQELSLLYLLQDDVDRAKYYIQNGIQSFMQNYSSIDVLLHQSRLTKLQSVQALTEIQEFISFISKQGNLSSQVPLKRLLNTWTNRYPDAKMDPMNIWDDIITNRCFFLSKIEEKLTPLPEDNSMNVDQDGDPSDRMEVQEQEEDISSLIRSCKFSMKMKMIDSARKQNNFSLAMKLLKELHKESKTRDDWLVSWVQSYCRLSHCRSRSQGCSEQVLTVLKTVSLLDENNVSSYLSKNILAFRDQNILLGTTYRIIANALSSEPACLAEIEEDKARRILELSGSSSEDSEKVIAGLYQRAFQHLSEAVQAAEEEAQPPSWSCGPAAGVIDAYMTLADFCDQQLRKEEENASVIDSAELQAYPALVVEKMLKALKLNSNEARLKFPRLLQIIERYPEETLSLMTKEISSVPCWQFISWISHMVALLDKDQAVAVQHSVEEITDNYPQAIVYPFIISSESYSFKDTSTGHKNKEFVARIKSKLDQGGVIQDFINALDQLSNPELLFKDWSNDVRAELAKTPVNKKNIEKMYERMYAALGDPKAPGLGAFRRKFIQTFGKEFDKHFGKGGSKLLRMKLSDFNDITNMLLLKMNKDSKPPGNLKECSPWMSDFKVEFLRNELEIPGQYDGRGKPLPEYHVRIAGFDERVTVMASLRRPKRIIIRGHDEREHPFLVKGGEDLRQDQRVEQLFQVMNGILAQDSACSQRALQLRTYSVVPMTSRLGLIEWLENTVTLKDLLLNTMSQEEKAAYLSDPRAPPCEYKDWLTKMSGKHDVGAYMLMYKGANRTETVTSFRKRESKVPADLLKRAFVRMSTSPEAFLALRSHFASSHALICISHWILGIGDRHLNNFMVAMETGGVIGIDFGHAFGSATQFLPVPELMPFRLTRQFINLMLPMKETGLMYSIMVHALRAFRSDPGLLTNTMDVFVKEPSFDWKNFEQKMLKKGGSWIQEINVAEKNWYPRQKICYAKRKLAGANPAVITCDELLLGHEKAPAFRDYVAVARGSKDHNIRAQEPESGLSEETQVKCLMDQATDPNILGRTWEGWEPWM

[4] = target: T3, Cyclin-dependent kinase 4 (Homo sapiens, UniProt P11802 2-303); test: anti-FLAG co-IP LC-MS, exp 3, +Dox
T3 construct: also called CDK4
T3 sequence (P11802 2-303 limits assumed): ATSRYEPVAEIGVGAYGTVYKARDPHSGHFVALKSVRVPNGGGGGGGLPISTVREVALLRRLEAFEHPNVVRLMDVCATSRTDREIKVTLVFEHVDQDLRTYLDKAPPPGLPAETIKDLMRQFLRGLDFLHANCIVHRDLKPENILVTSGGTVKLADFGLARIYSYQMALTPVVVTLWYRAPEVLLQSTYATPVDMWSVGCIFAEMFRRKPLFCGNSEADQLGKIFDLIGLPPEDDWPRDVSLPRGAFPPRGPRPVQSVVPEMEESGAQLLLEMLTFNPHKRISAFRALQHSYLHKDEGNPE

[5] = target: T4, Nuclease-sensitive element-binding protein 1 (Fragment) (Homo sapiens, UniProt P67809 2-324); test: anti-FLAG co-IP LC-MS, exp 3, +Dox
T4 construct: also called YBX1

[6] = target: T5, Proteasome subunit alpha type (Homo sapiens); test: anti-FLAG co-IP LC-MS, exp 3, +Dox
T5 construct: also called PSMA6

[7] = target: T6, Immunoglobulin kappa variable 2-40 (Homo sapiens); test: anti-FLAG co-IP LC-MS, exp 3, +Dox
T6 construct: also called IGKV2-40

[8] = target: T7, Heterogeneous nuclear ribonucleoprotein M (Homo sapiens, UniProt P52272 2-730); test: anti-FLAG co-IP LC-MS, exp 3, +Dox
T7 construct: also called HNRNPM
T7 sequence (looked up): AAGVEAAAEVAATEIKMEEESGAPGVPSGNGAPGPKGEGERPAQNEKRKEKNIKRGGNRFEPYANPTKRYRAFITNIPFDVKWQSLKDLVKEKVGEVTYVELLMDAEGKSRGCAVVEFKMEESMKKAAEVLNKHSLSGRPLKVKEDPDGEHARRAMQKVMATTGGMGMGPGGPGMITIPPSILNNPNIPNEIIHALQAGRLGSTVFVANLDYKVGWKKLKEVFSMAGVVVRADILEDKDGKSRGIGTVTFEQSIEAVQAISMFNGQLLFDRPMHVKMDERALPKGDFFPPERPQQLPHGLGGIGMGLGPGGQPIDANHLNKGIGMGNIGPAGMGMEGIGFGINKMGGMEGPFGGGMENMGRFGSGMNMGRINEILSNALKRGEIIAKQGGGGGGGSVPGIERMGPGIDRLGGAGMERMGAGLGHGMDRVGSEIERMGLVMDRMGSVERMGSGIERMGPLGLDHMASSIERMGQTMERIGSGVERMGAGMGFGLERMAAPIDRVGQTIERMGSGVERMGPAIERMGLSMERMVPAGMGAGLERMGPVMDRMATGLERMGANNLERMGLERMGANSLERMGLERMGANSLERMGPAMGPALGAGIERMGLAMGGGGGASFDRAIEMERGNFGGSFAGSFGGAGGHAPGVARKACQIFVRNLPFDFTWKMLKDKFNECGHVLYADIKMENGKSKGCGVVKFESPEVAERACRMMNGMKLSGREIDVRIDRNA

[9] = target: T8, 3×MYC-STAT1-S727E phosphorylated at Y701 with JAK1 kinase (UniProt P42224 1-750, phosphorylated at Y701 with JAK1 kinase); test: anti-FLAG IP of in vitro translated proteins, with JAK1 treatment, western
T8 construct: In vitro translated in rabbit reticulocyte lysate; not shown: 3×MYC tag
T8 sequence (looked up): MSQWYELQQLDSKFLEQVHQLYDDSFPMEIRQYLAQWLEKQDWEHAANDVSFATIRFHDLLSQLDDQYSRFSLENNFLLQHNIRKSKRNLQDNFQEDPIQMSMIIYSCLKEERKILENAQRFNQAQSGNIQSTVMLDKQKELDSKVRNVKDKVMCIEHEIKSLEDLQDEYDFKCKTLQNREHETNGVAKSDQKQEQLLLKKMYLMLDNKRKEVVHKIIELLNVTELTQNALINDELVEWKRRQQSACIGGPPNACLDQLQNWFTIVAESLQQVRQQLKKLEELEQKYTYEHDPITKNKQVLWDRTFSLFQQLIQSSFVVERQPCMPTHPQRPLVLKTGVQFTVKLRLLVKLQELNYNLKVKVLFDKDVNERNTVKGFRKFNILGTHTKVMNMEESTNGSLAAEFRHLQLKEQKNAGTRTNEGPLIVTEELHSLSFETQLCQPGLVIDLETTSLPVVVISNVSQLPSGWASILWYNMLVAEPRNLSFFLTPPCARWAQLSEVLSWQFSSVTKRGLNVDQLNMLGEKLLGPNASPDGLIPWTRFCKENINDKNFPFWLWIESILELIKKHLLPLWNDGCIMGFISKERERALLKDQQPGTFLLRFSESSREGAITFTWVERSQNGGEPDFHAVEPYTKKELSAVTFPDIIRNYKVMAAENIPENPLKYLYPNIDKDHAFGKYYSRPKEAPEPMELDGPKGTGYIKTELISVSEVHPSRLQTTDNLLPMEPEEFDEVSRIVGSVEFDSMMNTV

[10] = target: T2, DNA-dependent protein kinase catalytic …; test: anti-FLAG co-IP LC-MS, exp 4, +Dox +IFNG
[11] = target: T3, Cyclin-dependent kinase 4; test: anti-FLAG co-IP LC-MS, exp 4, +Dox +IFNG
[12] = target: T9, Uncharacterized protein (Fragment) (Homo sapiens); test: anti-FLAG co-IP LC-MS, exp 4, +Dox +IFNG
T9 construct: also called NA (Homology to TAP2)

[13] = target: T10, Nucleolin (Homo sapiens, UniProt P19338 2-710); test: anti-FLAG co-IP LC-MS, exp 4, +Dox +IFNG
T10 construct: also called NCL
T10 sequence (P19338 2-710 limits assumed): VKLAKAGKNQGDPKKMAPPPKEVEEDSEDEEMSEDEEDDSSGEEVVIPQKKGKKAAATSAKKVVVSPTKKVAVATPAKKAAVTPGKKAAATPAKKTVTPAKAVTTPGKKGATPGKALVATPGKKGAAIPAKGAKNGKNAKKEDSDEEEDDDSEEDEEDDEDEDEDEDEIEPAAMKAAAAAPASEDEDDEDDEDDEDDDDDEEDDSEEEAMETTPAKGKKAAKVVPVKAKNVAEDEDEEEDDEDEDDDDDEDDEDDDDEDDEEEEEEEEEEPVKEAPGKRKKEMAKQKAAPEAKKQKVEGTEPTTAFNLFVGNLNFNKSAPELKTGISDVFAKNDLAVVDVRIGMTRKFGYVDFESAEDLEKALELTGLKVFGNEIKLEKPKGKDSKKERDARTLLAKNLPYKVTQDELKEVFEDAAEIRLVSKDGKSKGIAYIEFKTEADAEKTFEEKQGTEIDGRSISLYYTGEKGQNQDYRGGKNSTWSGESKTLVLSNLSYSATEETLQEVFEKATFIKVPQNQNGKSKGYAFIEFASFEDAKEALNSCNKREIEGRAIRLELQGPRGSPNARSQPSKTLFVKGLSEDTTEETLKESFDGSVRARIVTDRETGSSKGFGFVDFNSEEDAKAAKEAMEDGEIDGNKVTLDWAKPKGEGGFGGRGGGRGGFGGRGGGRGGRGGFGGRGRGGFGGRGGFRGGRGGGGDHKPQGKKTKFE

[14] = target: T7, Heterogeneous nuclear ribonucleoprotein …; test: anti-FLAG co-IP LC-MS, exp 4, +Dox +IFNG
[15] = target: T11, 3×MYC-STAT1-S727E (UniProt P42224 1-750); test: anti-FLAG IP of in vitro translated proteins, without JAK1 treatment, western
T11 construct: In vitro translated in rabbit reticulocyte lysate; also called phospho-mimic STAT1-S727E; not shown: 3×MYC tag
T11 sequence (looked up): T8 sequence (looked up)

B1: i3XFLAG-NLS-CTDaa154-424 (other)
chain: MDYKDHDGDYKDHDIDYKDDDDKPPKRMRREPKKKRKVGRAPAQAGGLCSAAPGGGHPAPSWVAFAHTGAWGTGLPAPHVPCAPGALPQGAFVSQAARAAPALQPSQAAPAEGISQPAPARGDFAYAAPAPPDGALSHPQAPRWPPHPGKSREDRDPQRDGLPGPCAVAQPGPAQAGPQGQGVLAPPTSQGSPWWGWGRGPQVAGAAWEPQAGAAPPPQPAPPDASASARQGQMQGIPAPSQALQEPAPWSALPCGLLLDELLASPEFLQQAQPLLETEAPGELEASEEAASLEAPLSEEEYRALLEEL
notes: Doxycycline-induced in MB135 cells for co-IP; also called longCTD; iDUX4-CTD
[1]
  PSMs: 4 PSMs
[2]
  PSMs: 29 PSMs
[3]
  PSMs: 3 PSMs
[4]
  PSMs: 1 PSMs
[5]
  PSMs: 5 PSMs
[6]
  PSMs: 1 PSMs
[7]
  PSMs: 2 PSMs
[8]
  PSMs: 9 PSMs
[9]
  binding result: no binding
[10]
  PSMs: 2 PSMs
[11]
  PSMs: 11 PSMs
[12]
  PSMs: 1 PSMs
[13]
  PSMs: 1 PSMs
[14]
  PSMs: 2 PSMs
[15]
  binding result: no binding
